Source: PMC10397247
Where two headings read alike, the source gives them in different places.

T1: P2-AA-1HGe-Q
T1 chain: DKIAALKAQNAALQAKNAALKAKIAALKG

T2: P2-AA-1HGe-T
T2 chain: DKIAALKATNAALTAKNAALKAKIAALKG

T3: P2-AA
T3 chain: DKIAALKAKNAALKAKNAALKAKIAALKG

T4: P2-AA-1HGe-M
T4 chain: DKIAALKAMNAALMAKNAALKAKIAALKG

T5: P2-AA-1HGe-A
T5 chain: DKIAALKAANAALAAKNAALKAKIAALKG

T6: P2-AA-1HGe-D
T6 chain: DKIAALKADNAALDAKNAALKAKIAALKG

T7: 4H3364-bA
T7 chain: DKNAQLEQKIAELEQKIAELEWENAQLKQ

T8: 4H3297-bA
T8 chain: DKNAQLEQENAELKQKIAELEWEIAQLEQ

T9: 4H932-bA
T9 chain: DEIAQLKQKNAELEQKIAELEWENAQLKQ

T10: 4H730-bA
T10 chain: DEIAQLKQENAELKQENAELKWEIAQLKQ

T11: 4H349-bA
T11 chain: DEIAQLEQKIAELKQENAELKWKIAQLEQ

T12: 4H2859-bA
T12 chain: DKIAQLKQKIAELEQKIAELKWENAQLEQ

T13: 4H2931-bA
T13 chain: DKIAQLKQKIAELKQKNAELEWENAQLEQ

T14: 4H56-bA
T14 chain: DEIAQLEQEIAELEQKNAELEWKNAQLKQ

T15: 4H949-bA
T15 chain: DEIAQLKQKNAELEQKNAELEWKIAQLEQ

T16: 4H3381-bA
T16 chain: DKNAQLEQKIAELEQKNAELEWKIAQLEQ

T17: 4H796-bA
T17 chain: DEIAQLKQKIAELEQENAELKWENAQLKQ

T18: 4H3041-bA
T18 chain: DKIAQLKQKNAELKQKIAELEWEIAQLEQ


Experiments:
[1] = molecular target: T1, P2-AA-1HGe-Q; test: two-hybrid library CCmax; details: mean of both orientations;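 further: natural log of median RNA to DNA barcode read ratio; higher means stronger binding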
[2] = molecular target: T2, P2-AA-1HGe-T; test: two-hybrid library CCmax;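 further: natural log of median RNA to DNA barcode read ratio; higher means stronger binding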
[3] = molecular target: T3, P2-AA; test: two-hybrid library CCmax; details: mean of both orientations;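 further: natural log of median RNA to DNA barcode read ratio; higher means stronger binding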
[4] = molecular target: T4, P2-AA-1HGe-M; test: two-hybrid library CCmax; details: mean of both orientations;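 further: natural log of median RNA to DNA barcode read ratio; higher means stronger binding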
[5] = molecular target: T5, P2-AA-1HGe-A; test: two-hybrid library CCmax; details: mean of both orientations
[6] = molecular target: T6, P2-AA-1HGe-D; test: two-hybrid library CCmax; details: mean of both orientations
[7] = molecular target: T7, 4H3364-bA; test: two-hybrid library CCNG1
[8] = molecular target: T8, 4H3297-bA; test: two-hybrid library CCNG1
[9] = molecular target: T9, 4H932-bA; test: two-hybrid library CCNG1
[10] = molecular target: T10, 4H730-bA; test: two-hybrid library CCNG1
[11] = molecular target: T11, 4H349-bA; test: two-hybrid library CCNG1
[12] = molecular target: T12, 4H2859-bA; test: two-hybrid library CCNG1
[13] = molecular target: T13, 4H2931-bA; test: two-hybrid library CCNG1
[14] = molecular target: T14, 4H56-bA; test: two-hybrid library CCNG1
[15] = molecular target: T15, 4H949-bA; test: two-hybrid library CCNG1
[16] = molecular target: T16, 4H3381-bA; test: two-hybrid library CCNG1
[17] = molecular target: T17, 4H796-bA; test: two-hybrid library CCNG1
[18] = molecular target: T18, 4H3041-bA; test: two-hybrid library CCNG1

interaction score [1]	interaction score ([2]; mean of both orientations)	interaction score [3]	interaction score [4]	interaction score [5]	interaction score [6]	interaction score [2]	interaction score [7]	interaction score [8]	interaction score [9]	interaction score [10]	interaction score [11]	interaction score [12]	interaction score [13]	interaction score [14]	interaction score [15]	interaction score [16]	interaction score [17]	interaction score [18]	Binder
2.06		2.03	2.01	1.81	1.63	2.01													DEIAALEASNAALSAENAALEAEIAALEG [P1-AA-1HGe-S]
							0.621	-0.389	-0.912	-1.15	-1.25	0.951	-0.145	0.529	-1.6	-1.02	-0.855	0.532	DKIAQLKQKIAELEQKIAELKWENAQLEQ [4H2859-bA]

Continued, binder first:

Binder	interaction score [1]	interaction score ([2]; mean of both orientations)	interaction score [3]	interaction score [4]	interaction score [5]	interaction score [6]	interaction score [2]	interaction score [7]	interaction score [8]	interaction score [9]	interaction score [10]	interaction score [11]	interaction score [12]	interaction score [13]	interaction score [14]	interaction score [15]	interaction score [16]	interaction score [17]	interaction score [18]
DEIAALEARNAALRAENAALEAEIAALEG [P1-AA-1HGe-R]	2.26	2.2	1.49	1.7	1.97	1.67													
DEIAALEAQNAALQAENAALEAEIAALEG [P1-AA-1HGe-Q]	2.11	2.21	1.75	2.05	2.14	1.67													
